Each block holds one binder with its values, some of them ahead of it.
Legend:
C1q [1] = biological target: T1, C1q (UniProt P02745 23-245; P02746 28-253; P02747 29-245); assay: BLI (Fortebio Octet), antibody on FAB2G sensor, C1q 1.25-20 nM, 1:1 fit
T1 construct: also called serum complement C1q; complement C1q
Experimental: (§1) 50 μg/mL antibody was immobilized on the FAB2G sensor at an immobilization height of about […]. […] The antigen and antibody were dissociated in the buffer for 60 s. The sensor was refreshed 4 times in 10 mM glycine pH 1.7, each for 5 s. The shaking speed of the sample plate was 1000 rpm, the temperature was 30° C. and the frequency was 0.6 Hz. The data were analyzed by 1:1 model fitting to obtain affinity constants. The data acquisition software was Fortebio Data Acquisition 7.0, and the data analysis software was Fortebio Data Analysis 7.0.

FcγRI [2] = biological target: T2, FcγRI (UniProt P12314 16-288, limits assumed); assay: BLI (Fortebio Octet), FcγRI on HIS1K sensor, antibody 3.12-50 nM, 1:1 fit
T2 construct: construct not described; also called CD64; FcγR1
T2 sequence (P12314 16-288 limits assumed): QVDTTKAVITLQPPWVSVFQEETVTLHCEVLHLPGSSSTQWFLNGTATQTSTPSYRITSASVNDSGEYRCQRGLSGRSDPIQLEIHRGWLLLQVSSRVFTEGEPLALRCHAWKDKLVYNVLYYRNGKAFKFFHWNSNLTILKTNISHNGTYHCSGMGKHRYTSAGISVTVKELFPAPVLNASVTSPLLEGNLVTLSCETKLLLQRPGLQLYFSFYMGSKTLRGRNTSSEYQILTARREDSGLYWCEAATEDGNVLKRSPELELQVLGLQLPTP
Experimental: (§2) A 1 μg/mL FcγRI solution (from Sinobio) was added to the HIS1K sensor to immobilize the FcγRI on the sensor surface for 50 s. […] The sensor with immobilized antigen was equilibrated in the buffer for 60 s, and then the binding of the immobilized FcγRI on the sensor to the antibodies was determined for 120 s; the dissociation of FcγRI from the antibodies was determined in 120 s. The temperature was 30° C. and the frequency was 0.3 Hz. The data were fitted and analyzed with a 1:1 model to obtain the affinity constants to FcγRI for the antibodies.

FcγRIIb [3] = biological target: T3, FcγRIIb (UniProt P31994 43-217, limits assumed); assay: BLI (Fortebio Octet), FcγRIIb on NTA sensor, antibody 12.5-200 nM, 1:1 fit
T3 construct: also called CD32b
T3 sequence (looked up): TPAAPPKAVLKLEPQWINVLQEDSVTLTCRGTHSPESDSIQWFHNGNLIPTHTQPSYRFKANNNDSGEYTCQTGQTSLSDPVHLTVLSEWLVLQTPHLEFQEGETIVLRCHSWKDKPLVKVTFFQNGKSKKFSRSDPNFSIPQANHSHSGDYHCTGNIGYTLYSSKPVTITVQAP
Experimental: (§3) 5 μg/mL FcγRIIb was immobilized on the NTA sensor at an immobilization height of about 1.0 nm. […] The antibody was dissociated in the buffer for 60 s. The sensor was refreshed in 10 mM glycine pH 1.7 and 10 nM nickel sulfate. The temperature was 30° C. and the frequency was 0.6 Hz. The data were analyzed by 1:1 model fitting to obtain affinity constants.

FcγRIIa_H131 = biological target: T4, FcγRIIa_H131 (UniProt P12318 34-218); assay: BLI (Fortebio Octet), FcγRIIa_H131 immobilized on NTA sensor, antibody in solution at 12.5-200 nM
T4 construct: H131 polymorphic form
T4 sequence (looked up): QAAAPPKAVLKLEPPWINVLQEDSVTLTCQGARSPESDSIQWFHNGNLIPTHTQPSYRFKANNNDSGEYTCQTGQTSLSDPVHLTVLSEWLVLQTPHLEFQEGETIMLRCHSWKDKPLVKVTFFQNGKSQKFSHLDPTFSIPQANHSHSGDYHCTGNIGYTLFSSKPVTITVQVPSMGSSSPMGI
Experimental: as §3, with “FcγRIIa_H131” for “FcγRIIb”

C1q [4] = biological target: T1, C1q; assay: BLI (Fortebio Octet), antibody immobilized on FAB2G sensor, C1q in solution at 1.25-20 nM
Experimental: as §1

FcγRIIb [5] = biological target: T3, FcγRIIb; assay: BLI (Fortebio Octet), FcγRIIb immobilized on NTA sensor, antibody in solution at 12.5-200 nM
Experimental: as §3

FcγRI [6] = biological target: T2, FcγRI; assay: BLI (Fortebio Octet), FcγRI immobilized on HIS1K sensor, antibody in solution at 3.12-50 nM
Experimental: as §2

FcγRIIIa_V158 = biological target: T5, FcγRIIIa_V158 (UniProt P08637 17-208); assay: BLI (Fortebio Octet), FcγRIIIa_V158 immobilized on HIS1K sensor, antibody in solution at 31.25-500 nM
T5 construct: V158 polymorphic form (mature numbering)
T5 sequence (P08637 17-208 F176V limits assumed): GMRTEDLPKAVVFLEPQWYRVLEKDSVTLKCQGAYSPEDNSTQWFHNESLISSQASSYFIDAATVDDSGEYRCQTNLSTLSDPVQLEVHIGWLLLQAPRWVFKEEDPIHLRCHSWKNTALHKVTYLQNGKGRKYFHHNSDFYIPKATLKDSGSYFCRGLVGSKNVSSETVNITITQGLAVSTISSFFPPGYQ
Experimental: (§4) 5 μg/mL FcγRIIIa_V158 was immobilized on the HIS1K sensor for 120 s. […] The antibody was dissociated in the buffer for 60 s. The sensor was refreshed 4 times in 10 mM glycine pH 1.5, each for 5 s. The temperature was 30° C. and the frequency was 0.3 Hz. The data were analyzed by 1:1 model fitting to obtain affinity constants.

FcγRIIIa_F158 = biological target: T6, FcγRIIIa_F158 (UniProt P08637 17-208); assay: BLI (Fortebio Octet), FcγRIIIa_F158 immobilized on HIS1K sensor, antibody in solution at 31.25-500 nM
T6 construct: F158 polymorphic form
T6 sequence (P08637 17-208 limits assumed): as the sequence (P08637 17-208 F176V limits assumed) above, with V160F counted along it
Experimental: as §4, with “FcγRIIIa_F158” for “FcγRIIIa_V158”

T1 sequence (P02745 23-245 limits assumed, chain 1 of 3): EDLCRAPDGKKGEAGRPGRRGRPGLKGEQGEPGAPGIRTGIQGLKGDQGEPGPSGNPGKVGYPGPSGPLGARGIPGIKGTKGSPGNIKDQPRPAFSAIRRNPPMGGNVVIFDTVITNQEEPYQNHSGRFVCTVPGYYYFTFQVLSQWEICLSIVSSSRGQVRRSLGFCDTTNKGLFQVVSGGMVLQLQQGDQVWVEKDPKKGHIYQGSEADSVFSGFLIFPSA
T1 sequence (P02746 28-253 limits assumed, chain 2 of 3): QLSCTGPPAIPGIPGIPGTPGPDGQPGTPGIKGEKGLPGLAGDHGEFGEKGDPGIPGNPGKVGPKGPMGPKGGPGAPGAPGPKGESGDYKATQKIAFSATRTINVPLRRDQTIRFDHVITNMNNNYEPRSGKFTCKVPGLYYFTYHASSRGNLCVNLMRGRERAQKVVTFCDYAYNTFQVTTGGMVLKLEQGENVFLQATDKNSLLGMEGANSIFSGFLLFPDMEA
T1 sequence (P02747 29-245 limits assumed, chain 3 of 3): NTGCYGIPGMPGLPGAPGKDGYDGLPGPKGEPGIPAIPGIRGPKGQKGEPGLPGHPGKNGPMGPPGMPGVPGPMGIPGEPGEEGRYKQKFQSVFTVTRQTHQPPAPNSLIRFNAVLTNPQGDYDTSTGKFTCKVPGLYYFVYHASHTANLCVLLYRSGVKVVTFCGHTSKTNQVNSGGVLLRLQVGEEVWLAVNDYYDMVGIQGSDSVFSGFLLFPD

- Kd (C1q [1]): 4.43 nM
- koff (C1q [1]): 0.0105 s⁻¹
- kon (C1q [1]): 2.38e+06 M⁻¹ s⁻¹
B1: 5C10H2L2-IgG1mt (antibody)
chain 1: not shown
chain 2: EIVLTQSPDTLSVTPKEKVTLTCRASQSIGTNIHWFQQKPGQSPKLLIKYASESISGVPSRFSGSGSGTDFTLTINSVEAEDAATYYCQQSNSWPYTFGQGTKLEIKRTVAAPSVFIFPPSDEQLKSGTASVVCLLNNFYPREAKVQWKVDNALQSGNSQESVTEQDSKDSTYSLSSTLTLSKADYEKHKVYACEVTHQGLSSPVTKSFNRGEC

- Kd (FcγRI [2]): 5.92 nM
- Kd (C1q [1]): 2.53 nM
- Kd (FcγRIIb [3]): 56.1 nM
B2: BiAb004(hG1WT) (bispecific antibody, human IgG1, kappa)
heavy: not shown
light: DIQMTQSPSSMSASVGDRVTFTCRASQDINTYLSWFQQKPGKSPKTLIYRANRLVSGVPSRFSGSGSGQDYTLTISSLQPEDMATYYCLQYDEFPLTFGAGTKLELKRTVAAPSVFIFPPSDEQLKSGTASVVCLLNNFYPREAKVQWKVDNALQSGNSQESVTEQDSKDSTYSLSSTLTLSKADYEKHKVYACEVTHQGLSSPVTKSFNRGEC
notes: IgG-scFv (Morrison format); also called BiAb004(M); BiAh004(M)

- binding result (FcγRIIa_H131): no binding (tested: 200 nM)
- binding result (C1q [4]): no binding (tested: 20 nM)
- binding result (FcγRIIb [5]): no binding (tested: 200 nM)
- binding result (FcγRI [6]): no binding (tested: 50 nM)
- binding result (FcγRIIIa_V158): no binding (tested: 500 nM)
- binding result (FcγRIIIa_F158): no binding (tested: 500 nM)
B3: BiAb004(hG1TM) (bispecific antibody, human IgG1, kappa)
heavy: not shown
light: B2 light
notes: IgG-scFv (Morrison format), anti-PD-1 IgG1 with an anti-CTLA4 scFv on the C terminus of each heavy chain

— patent US20220275089A1 (AKESO PHARMACEUTICALS, published 2022)
